# Experimental data reported in patent US20220204643A1 (published 2022).
# T1: microtubule associated scaffold protein 2, transcript variant 2 (human, UniProt Q5JR59 1040-1369)
# T1 construct: HuProt array protein, full-length recombinant from yeast; also called MTUS2
# T1 sequence: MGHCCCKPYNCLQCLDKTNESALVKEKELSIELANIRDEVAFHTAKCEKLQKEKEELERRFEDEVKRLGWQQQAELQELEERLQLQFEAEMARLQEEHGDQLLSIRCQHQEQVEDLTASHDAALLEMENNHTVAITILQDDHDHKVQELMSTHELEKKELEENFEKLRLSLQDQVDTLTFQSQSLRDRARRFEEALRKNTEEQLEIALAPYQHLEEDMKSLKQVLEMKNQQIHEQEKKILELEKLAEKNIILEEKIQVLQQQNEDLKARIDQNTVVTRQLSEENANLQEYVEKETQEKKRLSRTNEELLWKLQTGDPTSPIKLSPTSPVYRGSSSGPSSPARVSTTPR
# T2: keratin associated protein 12-3 (human, UniProt P60328 1-96)
# T2 construct: HuProt array protein, full-length recombinant from yeast; also called KRTAP12-3
# T2 sequence: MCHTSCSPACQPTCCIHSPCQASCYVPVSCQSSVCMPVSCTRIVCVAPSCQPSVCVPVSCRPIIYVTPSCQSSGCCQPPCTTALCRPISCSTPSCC
# T3: PAGE family member 2 (human, UniProt Q7Z2X7 1-111)
# T3 construct: HuProt array protein, full-length recombinant from yeast; also called PAGE2
# T3 sequence: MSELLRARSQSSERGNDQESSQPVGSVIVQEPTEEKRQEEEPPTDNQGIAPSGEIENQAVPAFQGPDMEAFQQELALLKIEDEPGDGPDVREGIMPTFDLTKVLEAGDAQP
# T4: arginine and glutamate rich 1 (human, UniProt Q9NWB6 1-273)
# T4 construct: HuProt array protein, full-length recombinant from yeast; also called ARGLU1
# T4 sequence: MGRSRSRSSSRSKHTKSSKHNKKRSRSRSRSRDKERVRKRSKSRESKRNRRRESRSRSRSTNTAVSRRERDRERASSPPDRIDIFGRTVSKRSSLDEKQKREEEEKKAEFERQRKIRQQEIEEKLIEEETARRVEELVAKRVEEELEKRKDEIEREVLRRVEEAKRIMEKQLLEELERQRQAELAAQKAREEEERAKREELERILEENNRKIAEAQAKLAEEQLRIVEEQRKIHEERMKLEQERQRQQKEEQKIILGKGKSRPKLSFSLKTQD
# T5: SAS-6 centriolar assembly protein, transcript variant 2 (human, UniProt Q6UVJ0 168-657)
# T5 construct: HuProt array protein, full-length recombinant from yeast; also called SASS6
# T5 sequence: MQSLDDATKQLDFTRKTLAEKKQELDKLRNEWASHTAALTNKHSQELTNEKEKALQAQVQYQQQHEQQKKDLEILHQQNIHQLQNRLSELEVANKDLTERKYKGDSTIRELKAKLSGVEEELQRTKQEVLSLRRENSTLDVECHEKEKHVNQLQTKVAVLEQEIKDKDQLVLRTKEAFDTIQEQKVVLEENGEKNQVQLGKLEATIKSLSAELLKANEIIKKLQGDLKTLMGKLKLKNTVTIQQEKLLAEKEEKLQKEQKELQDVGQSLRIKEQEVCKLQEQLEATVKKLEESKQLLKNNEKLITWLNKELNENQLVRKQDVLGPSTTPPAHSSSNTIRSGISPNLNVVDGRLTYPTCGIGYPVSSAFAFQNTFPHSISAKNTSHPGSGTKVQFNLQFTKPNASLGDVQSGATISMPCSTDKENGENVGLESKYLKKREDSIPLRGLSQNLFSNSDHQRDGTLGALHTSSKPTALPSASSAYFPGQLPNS
# T6: zinc finger protein 296 (human, UniProt Q8WUU4 1-475)
# T6 construct: HuProt array protein, full-length recombinant from yeast; also called ZNF296
# T6 sequence: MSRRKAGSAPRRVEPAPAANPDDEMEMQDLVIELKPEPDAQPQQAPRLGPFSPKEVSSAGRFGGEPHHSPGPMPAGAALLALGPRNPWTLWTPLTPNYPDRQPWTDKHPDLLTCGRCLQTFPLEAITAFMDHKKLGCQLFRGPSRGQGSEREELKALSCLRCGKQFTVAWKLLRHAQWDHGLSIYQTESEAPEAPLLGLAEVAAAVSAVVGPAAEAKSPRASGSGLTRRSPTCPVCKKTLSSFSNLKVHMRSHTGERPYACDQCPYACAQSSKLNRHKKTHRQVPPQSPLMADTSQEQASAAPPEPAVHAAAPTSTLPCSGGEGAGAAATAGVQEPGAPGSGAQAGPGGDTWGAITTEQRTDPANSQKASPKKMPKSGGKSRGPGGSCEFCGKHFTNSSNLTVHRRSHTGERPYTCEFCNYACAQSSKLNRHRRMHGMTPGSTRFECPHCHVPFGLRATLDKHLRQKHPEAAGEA
# T7: anterior gradient 3, protein disulphide isomerase family member (human, UniProt Q8TD06 22-166)
# T7 construct: HuProt array protein, full-length recombinant from yeast; also called AGR3
# T7 sequence: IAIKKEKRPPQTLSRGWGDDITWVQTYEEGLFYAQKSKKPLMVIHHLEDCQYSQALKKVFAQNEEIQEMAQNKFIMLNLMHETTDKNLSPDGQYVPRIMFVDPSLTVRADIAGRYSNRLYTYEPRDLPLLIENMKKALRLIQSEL
# T8: Src like adaptor, transcript variant 1 (human, UniProt Q13239 2-276)
# T8 construct: HuProt array protein, full-length recombinant from yeast; also called SLA
# T8 sequence: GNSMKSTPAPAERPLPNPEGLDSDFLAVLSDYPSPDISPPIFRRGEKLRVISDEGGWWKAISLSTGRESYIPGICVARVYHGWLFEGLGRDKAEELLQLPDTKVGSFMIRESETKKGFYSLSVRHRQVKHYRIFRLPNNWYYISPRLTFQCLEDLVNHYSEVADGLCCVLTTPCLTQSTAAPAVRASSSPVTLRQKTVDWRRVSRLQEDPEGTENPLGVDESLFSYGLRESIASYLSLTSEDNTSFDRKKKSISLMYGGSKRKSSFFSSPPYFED
# B1: TMEL1027 (antibody, V domains shown)
# VH: QVQLVQSGAEVKKPGASVKVSCKASGYTFTVYYMHWVRQAPGQGLEWMGRINPNSGGTNYAQKFQGRVTMTRDTSISTAYMELSRLTSDDTAVYYCARVVVVGTDYGMDVWGQGTTVTVSS
# VL: VSSELTQDPAVSVALGQTVRITCQGDSLRSYYASWYQQRPGQAPVLVIYGKNNRPSGIPDRFSGSSSGNTASLTITGAQAEDEADYYCNSRDSSGNHVFGTGTKVTVLG
# notes: detected with anti-human IgG Fc
# B2: TMEL1035 (antibody, V domains shown)
# VH: QVQLVESGGGVVQPGRSLRLSCAASGFTFSSYAMHWVRQAPGKGLEWVAVISYDGSNKYYADSVKGRFTISRDNSKNTLYLQMNSLRAEDTAVYYCASPIAVAAPFAYWGQGTLVTVSS
# VL: VSSELTQDPAVSVALGQTVRITCQGDSLRSYYASWYQQKPGQAPVLVIYGKNNRPSGIPDRFSGSSSGNTASLTITGAQAEDEADYYCNSRDSSGNLYVFGTGTKVTVLG
# notes: as for B1
# B3: TMEL1031 (antibody, V domains shown)
# VH: EVQLVESGGGLVQPGGSLRLSCAASGFTVSSNYMSWVRQAPGKGLEWVSVIYSGGSTYYADSVKGRFTISRDNSKNTLSLQMNSLRAEDTAVYYCARESSAAGYDYWGQGTLVTVSS
# VL: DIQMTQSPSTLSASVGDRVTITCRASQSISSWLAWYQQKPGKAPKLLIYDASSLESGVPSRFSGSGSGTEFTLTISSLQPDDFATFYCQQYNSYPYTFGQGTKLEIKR
# notes: as for B1
# B4: TMEL1030 (antibody, V domains shown)
# VH: QVQLQESGPGLVKPSGTLSLTCAVSGGSISSSNCWSWVRQPPGKGLEWLGEICHSGSTSYNPSLKSRVTISVDKSKNQFSLKLRSVTAADTAVYYCARESPLTVVFDYWGQGTLVTVSS
# VL: DIQMTQSPSSLSASVGDRVTITCRASQGIRNDLGWFQQKPGKAPKRLIYAASNLPSGVSSRFSGSGSGTEFTLTISSLQPEDFATYYCLQHNNYPLTFGQGTKVEFKR
# notes: as for B1
# B5: TMEL1033 (antibody, V domains shown)
# VH: PVQLQESGPGLVKPSETLSLTCTVSGGSVSSGSYYWSWIRQPPGKGLEWIGYIYYSGSTNYNPSLKSRVTISVDTSKNQFSLKLSSVTAADTAVYYCARDRGDYVTHWFDPWGQGTLVTVSS
# VL: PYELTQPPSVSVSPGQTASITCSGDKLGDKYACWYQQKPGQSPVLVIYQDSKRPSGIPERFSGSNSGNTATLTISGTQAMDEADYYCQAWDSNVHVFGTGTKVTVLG
# notes: as for B1
# B6: TBRE1032 (antibody, V domains shown)
# VH: EVQLVESGGGLVQPGGSLRLSCAASGFTFSSYDFHWVRQPTGKGLEWVSAIGTAGDTLYLDSVKGRFTISRENAKNSLYLQMNSLRAGDTAVYYCARVNWNSDTFDSWGQGTLVTVSS
# VL: VSSELTQDPAVSVALGQTVRITCQGDSLRRYYASWYQQKAGQAPILVIYGENNRPSGIPDRFSGSGSGNTASLTITGAQAEDEADYYCDSRDSSGNLVVFGGGTKLTVL
# notes: VH/VL only
# B7: TMEL1037 (antibody, V domains shown)
# VH: PLQLQESGPGLVKPSETLSLTCTVSGGSISSSSYYWGWIRQSPGKGLEWMGSIYYSGSTYYNPSLKSRVTISVDTSKNQFSLNLSSVTAADTAVYYCARHDYRNYFDYWGQGTLVTVSS
# VL: not shown
# notes: as for B1
# B8: TMEL1028 (antibody, V domains shown)
# VH: QVQLVQSGAEVKKPGASVKVSCKASGYTFTSYGISWVRQAPGQGLEWMGWISAYNGNTNYAQKLQGRVTMTTDTSTSTAYMELRSLTSDDTAVYYCARDQGLERANWFDPWGQGTLVTVSS
# VL: not shown
# notes: as for B1
# B9: TMEL1020 (antibody, V domains shown)
# VH: QVHLVQSGAEVKKPGASVKVSCKASGYTFTNYFIHWVRQAPGQGPEWMGVINPSFGSTTYAQKLQGRVTMTRETSTSTVYMELSSLRSEDTAVYYCARESLDSASYSTIAHWGQGTLVTVSS
# VL: EIVLAQSPGTLYLSPGERATLSCRASQSVRGNYLAWYQQRPGQAPRLLIYGASSRATGIPDRFGGSGSGTDFTLTITRLLPEDFAVYYCHQYGSSPRTFGQGTKVEIKR
# notes: as for B1
# B10: TMEL1032 (antibody, V domains shown)
# VH: QVQLVQSGAEVRKPGASVKVSCKASGYTFTTYYIHWVRQAPGQGLEWMGLINPNGGTTNYAQKFQGRLSMTTDTSTNTVYMELSSLRSEDTAVYYCARKLMSGIVSRGWFDPWGQGTLVTVSS
# VL: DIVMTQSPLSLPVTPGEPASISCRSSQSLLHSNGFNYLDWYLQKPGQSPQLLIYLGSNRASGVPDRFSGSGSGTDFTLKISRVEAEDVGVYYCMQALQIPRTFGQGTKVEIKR
# notes: as for B1
# Columns and labels:
# [1] = target: T1, microtubule associated scaffold protein …
# [2] = target: T2, keratin associated protein 12-3
# PAGE family member 2 = target: T3, PAGE family member 2
# [3] = target: T4, arginine and glutamate rich 1
# [4] = target: T5, SAS-6 centriolar assembly protein, …
# Bcl2 like 1 = target: T9, Bcl2 like 1 (human, UniProt Q07817 1-233)
# T9 construct: HuProt array protein, full-length recombinant from yeast; also called BCL2L1
# [5] = target: T10, zinc finger protein 431, transcript variant 2 (human, UniProt Q8TF32 1-576)
# T10 construct: HuProt array protein, full-length recombinant from yeast; also called ZNF431
# nudix hydrolase 21 = target: T11, nudix hydrolase 21 (human, UniProt O43809 2-227)
# T11 construct: HuProt array protein, full-length recombinant from yeast; also called NUDT21
# Zinc finger protein 699 = target: T12, Zinc finger protein 699 (human, UniProt Q32M78 1-642)
# T12 construct: HuProt array protein, full-length recombinant from yeast; also called ZNF699
# [6] = target: T13, X-linked inhibitor of apoptosis, transcript variant 2 (human, UniProt P98170 1-497); assay: protein array
# T13 construct: on protein array; also called XIAP
# enolase 2 = target: T14, enolase 2 (human, UniProt P09104 2-434)
# T14 construct: HuProt array protein, full-length recombinant from yeast; also called ENO2
# [7] = target: phosphodiesterase 5A, transcript variant 1 (human, UniProt O76074 1-875)
# zinc finger protein 296 = target: T6, zinc finger protein 296
# [8] = target: T7, anterior gradient 3, protein disulphide …
# [9] = target: T15, proteasome 26S subunit, non-ATPase 4, transcript variant 2 (human, UniProt P55036 1-377)
# T15 construct: HuProt array protein, full-length recombinant from yeast; also called PSMD4
# [10] = target: T8, Src like adaptor, transcript variant 1
# T14 sequence (P09104 2-434 limits assumed): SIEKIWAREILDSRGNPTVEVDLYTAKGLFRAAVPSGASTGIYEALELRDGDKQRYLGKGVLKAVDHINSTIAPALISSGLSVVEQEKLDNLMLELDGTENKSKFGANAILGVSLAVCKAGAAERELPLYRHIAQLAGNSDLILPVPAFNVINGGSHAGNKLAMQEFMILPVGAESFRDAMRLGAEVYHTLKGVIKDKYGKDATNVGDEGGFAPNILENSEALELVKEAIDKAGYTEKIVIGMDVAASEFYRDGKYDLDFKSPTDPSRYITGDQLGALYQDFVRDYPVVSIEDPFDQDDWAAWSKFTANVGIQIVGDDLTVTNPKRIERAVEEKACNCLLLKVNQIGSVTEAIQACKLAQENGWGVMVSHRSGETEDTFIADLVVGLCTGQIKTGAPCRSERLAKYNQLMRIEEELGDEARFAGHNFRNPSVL
# T9 sequence (Q07817 whole entry): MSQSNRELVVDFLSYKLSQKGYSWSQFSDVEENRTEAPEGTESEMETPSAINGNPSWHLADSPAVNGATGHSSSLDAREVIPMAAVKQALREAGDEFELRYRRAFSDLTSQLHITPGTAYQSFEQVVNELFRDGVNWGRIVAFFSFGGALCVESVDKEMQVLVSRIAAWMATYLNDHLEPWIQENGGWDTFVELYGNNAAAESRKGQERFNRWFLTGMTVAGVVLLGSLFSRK
# T13 sequence (P98170 whole entry, change not shown): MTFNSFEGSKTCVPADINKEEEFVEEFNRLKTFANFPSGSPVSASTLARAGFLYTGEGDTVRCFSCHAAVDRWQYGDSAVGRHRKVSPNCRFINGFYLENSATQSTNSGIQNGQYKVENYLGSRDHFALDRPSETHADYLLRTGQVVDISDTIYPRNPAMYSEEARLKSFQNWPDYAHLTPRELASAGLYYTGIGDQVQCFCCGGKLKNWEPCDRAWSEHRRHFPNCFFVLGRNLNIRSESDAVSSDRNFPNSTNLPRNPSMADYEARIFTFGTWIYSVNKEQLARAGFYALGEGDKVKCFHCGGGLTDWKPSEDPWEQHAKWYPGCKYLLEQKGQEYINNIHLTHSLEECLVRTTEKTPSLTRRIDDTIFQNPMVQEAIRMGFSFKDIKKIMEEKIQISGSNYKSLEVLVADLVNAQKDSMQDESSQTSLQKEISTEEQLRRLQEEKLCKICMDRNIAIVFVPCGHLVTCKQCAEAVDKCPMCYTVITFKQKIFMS
# T10 sequence (Q8TF32 other isoform, or with tags, fused parts or gaps mutant limits assumed): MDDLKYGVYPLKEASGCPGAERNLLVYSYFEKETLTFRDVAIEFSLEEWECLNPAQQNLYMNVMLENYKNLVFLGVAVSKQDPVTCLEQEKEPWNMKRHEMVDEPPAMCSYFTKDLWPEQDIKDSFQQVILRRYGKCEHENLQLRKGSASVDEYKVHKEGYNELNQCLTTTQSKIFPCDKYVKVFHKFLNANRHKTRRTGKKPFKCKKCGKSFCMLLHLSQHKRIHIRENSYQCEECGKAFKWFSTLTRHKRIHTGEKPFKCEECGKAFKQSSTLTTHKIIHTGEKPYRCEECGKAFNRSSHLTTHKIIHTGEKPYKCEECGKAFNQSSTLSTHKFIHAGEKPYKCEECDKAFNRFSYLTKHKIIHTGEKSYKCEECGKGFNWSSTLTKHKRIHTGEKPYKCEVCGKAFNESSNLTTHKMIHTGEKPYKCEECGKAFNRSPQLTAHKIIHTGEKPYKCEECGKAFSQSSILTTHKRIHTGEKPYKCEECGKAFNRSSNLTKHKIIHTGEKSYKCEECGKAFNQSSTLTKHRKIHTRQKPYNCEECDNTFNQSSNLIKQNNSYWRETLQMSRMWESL
# T12 sequence (Q32M78 whole entry): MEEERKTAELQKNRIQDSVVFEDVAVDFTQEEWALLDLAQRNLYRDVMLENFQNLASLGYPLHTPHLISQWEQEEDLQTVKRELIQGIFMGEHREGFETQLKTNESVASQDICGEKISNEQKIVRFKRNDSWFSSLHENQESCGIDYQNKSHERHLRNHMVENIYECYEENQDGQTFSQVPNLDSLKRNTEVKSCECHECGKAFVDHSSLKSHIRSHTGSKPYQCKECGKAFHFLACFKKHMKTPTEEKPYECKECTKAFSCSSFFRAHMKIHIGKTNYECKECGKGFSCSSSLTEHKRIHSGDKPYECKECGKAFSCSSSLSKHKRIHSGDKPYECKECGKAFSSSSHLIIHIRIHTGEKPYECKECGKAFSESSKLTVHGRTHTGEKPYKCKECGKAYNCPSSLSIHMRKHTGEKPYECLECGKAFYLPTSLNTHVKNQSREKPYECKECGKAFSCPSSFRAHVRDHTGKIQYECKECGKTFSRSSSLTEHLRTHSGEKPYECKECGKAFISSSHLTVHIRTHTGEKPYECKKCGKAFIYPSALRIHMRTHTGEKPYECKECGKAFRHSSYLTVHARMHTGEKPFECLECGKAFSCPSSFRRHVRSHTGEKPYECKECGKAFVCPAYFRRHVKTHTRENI
# T11 sequence (O43809 2-227 limits assumed): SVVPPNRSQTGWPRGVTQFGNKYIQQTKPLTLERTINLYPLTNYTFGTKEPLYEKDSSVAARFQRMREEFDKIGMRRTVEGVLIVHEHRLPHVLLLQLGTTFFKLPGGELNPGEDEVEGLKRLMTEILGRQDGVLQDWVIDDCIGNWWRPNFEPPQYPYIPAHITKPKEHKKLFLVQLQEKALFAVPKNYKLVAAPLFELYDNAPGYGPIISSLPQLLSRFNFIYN
# T15 sequence (P55036 whole entry, change not shown): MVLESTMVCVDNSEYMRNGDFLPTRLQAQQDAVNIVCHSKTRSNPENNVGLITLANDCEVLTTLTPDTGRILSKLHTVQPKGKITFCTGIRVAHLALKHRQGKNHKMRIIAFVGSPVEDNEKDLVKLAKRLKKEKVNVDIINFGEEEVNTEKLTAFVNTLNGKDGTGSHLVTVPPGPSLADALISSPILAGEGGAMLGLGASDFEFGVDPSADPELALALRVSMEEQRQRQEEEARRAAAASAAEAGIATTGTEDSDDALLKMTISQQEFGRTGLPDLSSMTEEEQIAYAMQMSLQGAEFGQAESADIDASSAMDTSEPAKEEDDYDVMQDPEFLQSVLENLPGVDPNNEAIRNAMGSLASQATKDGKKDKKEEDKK
binder,measurement,setting,value
B1,binding result,[1],binds
B2,binding result,[2],binds
same,binding result,PAGE family member 2,binds
B3,binding result,[3],binds
same,binding result,[4],binds
B4,binding result,Bcl2 like 1,binds
B5,binding result,[5],binds
same,binding result,nudix hydrolase 21,binds
same,binding result,Zinc finger protein 699,binds
B6,binding result,[6],binds
B7,binding result,enolase 2,binds
B8,binding result,[7],binds
same,binding result,zinc finger protein 296,binds
B9,binding result,[8],binds
B10,binding result,[9],binds
same,binding result,[10],binds
